{"source": "paper PMC10901769", "about": "“An anti-CRISPR that represses its own transcription while blocking Cas9-target DNA binding”", "binders": {"B1": {"name": "IR1-IR2 (dsDNA)", "DNA 1": "ATAATTATGACAAATGTCATAGAAAAGCGTTGACTTATGACGAACGTCATAATATA", "DNA 2": "TATATTATGACGTTCGTCATAAGTCAACGCTTTTCTATGACATTTGTCATAATTAT"}, "B2": {"name": "SaCas9 sgRNA (structured_RNA)", "RNA": "GGUCUGCUAUUUCUAUUUACGUUUUAGUACUCUGGAAACAGAAUCUACUAAAACAAGGCAAAAUGCCGUGUUUAUCUCGUCAACUUGUUGGCGAGAUC"}, "B3": {"name": "IR1' (dsDNA)", "DNA 1": "TTATGACAAATGTCATAG", "DNA 2": "CTATGACATTTGTCATAA"}}, "key": {"AcrIIA15 NTD": {"target": "T1, AcrIIA15 NTD (UniProt PDB:8JFR_1 1-63)", "T1 sequence": "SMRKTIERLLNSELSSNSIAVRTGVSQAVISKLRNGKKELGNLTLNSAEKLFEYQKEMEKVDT", "experiment": "EMSA; Promoter EMSA: 20 mM Tris-HCl pH 7.5, 300 mM NaCl, on ice/4 C, 30 min; SaCas9 EMSA: 20 mM Tris pH 7.5, 200 mM NaCl, 10 mM EDTA, RT; SPR: 10 mM Na2HPO4, 2 mM KH2PO4, 0.3 M NaCl; SEC: 20 mM Tris pH 7.5, 300 mM NaCl", "details": "protein: recombinant; tags: C-His6 or His6-Sumo (removed); chain copies: 2; blunt"}, "AcrIIA15 full-length [1]": {"target": "T2, AcrIIA15 full-length (UniProt PDB:8JG9_3 1-171)", "T2 sequence": "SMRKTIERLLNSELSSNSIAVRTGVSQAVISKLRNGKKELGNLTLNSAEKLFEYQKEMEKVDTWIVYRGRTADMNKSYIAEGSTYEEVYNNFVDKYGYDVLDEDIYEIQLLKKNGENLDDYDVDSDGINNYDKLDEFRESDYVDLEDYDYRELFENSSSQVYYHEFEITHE", "experiment": "EMSA; Promoter EMSA: 20 mM Tris-HCl pH 7.5, 300 mM NaCl, on ice/4 C, 30 min; SaCas9 EMSA: 20 mM Tris pH 7.5, 200 mM NaCl, 10 mM EDTA, RT; SPR: 10 mM Na2HPO4, 2 mM KH2PO4, 0.3 M NaCl; SEC: 20 mM Tris pH 7.5, 300 mM NaCl", "details": "protein: recombinant; tags: C-terminal His6, or His6-Sumo removed by Ulp1; chain copies: 2; blunt"}, "AcrIIA15 CTD": {"target": "T3, AcrIIA15 CTD (UniProt PDB:8JFT_3 1-114)", "T3 sequence": "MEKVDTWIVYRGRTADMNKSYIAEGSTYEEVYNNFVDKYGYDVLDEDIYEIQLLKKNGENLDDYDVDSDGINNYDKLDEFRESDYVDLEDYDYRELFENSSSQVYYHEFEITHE", "experiment": "EMSA; Promoter EMSA: 20 mM Tris-HCl pH 7.5, 300 mM NaCl, on ice/4 C, 30 min; SaCas9 EMSA: 20 mM Tris pH 7.5, 200 mM NaCl, 10 mM EDTA, RT; SPR: 10 mM Na2HPO4, 2 mM KH2PO4, 0.3 M NaCl; SEC: 20 mM Tris pH 7.5, 300 mM NaCl", "details": "protein: recombinant; tags: C-His6 or His6-Sumo (removed); blunt"}, "SaCas9;AcrIIA15 CTD": {"target": "T4, SaCas9;AcrIIA15 CTD (Staphylococcus aureus;, UniProt J7RUA5;PDB:8JFT_3 1-1053;1-114, |)", "T4 sequence 1": "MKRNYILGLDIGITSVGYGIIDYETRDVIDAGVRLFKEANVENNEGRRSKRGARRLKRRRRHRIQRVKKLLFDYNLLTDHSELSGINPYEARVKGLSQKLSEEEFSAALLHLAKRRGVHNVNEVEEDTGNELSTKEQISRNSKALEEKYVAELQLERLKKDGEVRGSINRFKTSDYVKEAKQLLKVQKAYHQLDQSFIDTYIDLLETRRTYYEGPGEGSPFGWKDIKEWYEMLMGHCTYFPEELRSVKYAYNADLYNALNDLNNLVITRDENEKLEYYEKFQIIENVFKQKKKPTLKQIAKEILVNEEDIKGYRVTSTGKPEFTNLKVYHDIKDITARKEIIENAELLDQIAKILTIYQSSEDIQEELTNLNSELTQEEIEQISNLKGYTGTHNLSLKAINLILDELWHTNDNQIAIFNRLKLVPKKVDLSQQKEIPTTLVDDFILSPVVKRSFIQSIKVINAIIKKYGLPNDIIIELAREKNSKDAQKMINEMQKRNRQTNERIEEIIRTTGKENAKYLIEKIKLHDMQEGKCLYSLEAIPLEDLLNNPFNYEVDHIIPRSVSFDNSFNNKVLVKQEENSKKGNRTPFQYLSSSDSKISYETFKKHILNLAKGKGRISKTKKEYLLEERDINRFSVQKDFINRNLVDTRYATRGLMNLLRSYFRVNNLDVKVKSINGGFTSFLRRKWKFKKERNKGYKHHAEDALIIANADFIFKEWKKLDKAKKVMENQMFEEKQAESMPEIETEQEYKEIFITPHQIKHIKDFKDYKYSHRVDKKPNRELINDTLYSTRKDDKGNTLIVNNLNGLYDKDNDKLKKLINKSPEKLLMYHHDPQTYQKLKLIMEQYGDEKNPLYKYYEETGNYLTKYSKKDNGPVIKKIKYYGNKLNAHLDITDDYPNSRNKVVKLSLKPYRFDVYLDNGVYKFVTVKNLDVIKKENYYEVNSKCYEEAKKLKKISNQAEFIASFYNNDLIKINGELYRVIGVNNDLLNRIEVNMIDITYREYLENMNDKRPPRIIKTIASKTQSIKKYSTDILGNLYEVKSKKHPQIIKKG", "T4 sequence 2": "T3 sequence", "experiment": "cryo-EM; Promoter EMSA: 20 mM Tris-HCl pH 7.5, 300 mM NaCl, on ice/4 C, 30 min; SaCas9 EMSA: 20 mM Tris pH 7.5, 200 mM NaCl, 10 mM EDTA, RT; SPR: 10 mM Na2HPO4, 2 mM KH2PO4, 0.3 M NaCl; SEC: 20 mM Tris pH 7.5, 300 mM NaCl", "details": "protein: recombinant;recombinant; tags: His6-Sumo removed by Ulp1;C-His6 or His6-Sumo (removed); copies: 1;1; hairpin"}, "[2]": {"target": "T5, SaCas9;AcrIIA15 full-length (Staphylococcus aureus;, UniProt J7RUA5;PDB:8JG9_3 1-1053;1-171, |)", "T5 sequence 1": "T4 sequence 1", "T5 sequence 2": "T2 sequence", "experiment": "cryo-EM; with IR1 DNA; Promoter EMSA: 20 mM Tris-HCl pH 7.5, 300 mM NaCl, on ice/4 C, 30 min; SaCas9 EMSA: 20 mM Tris pH 7.5, 200 mM NaCl, 10 mM EDTA, RT; SPR: 10 mM Na2HPO4, 2 mM KH2PO4, 0.3 M NaCl; SEC: 20 mM Tris pH 7.5, 300 mM NaCl", "details": "protein: recombinant;recombinant; tags: His6-Sumo removed by Ulp1;C-terminal His6, or His6-Sumo removed by Ulp1; chain copies: 2;2; hairpin"}, "AcrIIA15 full-length [3]": {"target": "T2, AcrIIA15 full-length", "experiment": "SEC; no stable binding; Promoter EMSA: 20 mM Tris-HCl pH 7.5, 300 mM NaCl, on ice/4 C, 30 min; SaCas9 EMSA: 20 mM Tris pH 7.5, 200 mM NaCl, 10 mM EDTA, RT; SPR: 10 mM Na2HPO4, 2 mM KH2PO4, 0.3 M NaCl; SEC: 20 mM Tris pH 7.5, 300 mM NaCl", "details": "protein: recombinant; tags: C-terminal His6, or His6-Sumo removed by Ulp1; chain copies: 2; blunt"}}, "data": [{"binder": "B1", "values": [{"measurement": "binding result", "setting": "AcrIIA15 NTD", "result": "binds"}, {"measurement": "binding result", "setting": "AcrIIA15 full-length [1]", "result": "binds"}, {"measurement": "binding result", "setting": "AcrIIA15 CTD", "result": "no binding"}]}, {"binder": "B2", "values": [{"measurement": "binding result", "setting": "SaCas9;AcrIIA15 CTD", "result": "binds"}, {"measurement": "binding result", "setting": "[2]", "result": "binds"}]}, {"binder": "B3", "values": [{"measurement": "binding result", "setting": "AcrIIA15 full-length [3]", "result": "no binding"}]}]}
